Series [1] addresses T1, NS3 (Hepatitis C virus genotype 1b, UniProt P26663).
T1 construct: made in house
Nature of the series: Competitive in vitro fluorometric assay with epitope mimetic peptide. In kind it is biochemical, Hepatitis C virus (HCV). To be noted: scFv 200 μg/ml. The source says: In order to confirm the prediction of scFv 35 and 171 shared epitope on NS3, the epitope was reconstituted on basis of the prediction. To that end, a short peptide segment of NS3 that was predicted to comprise the antibodies shared epitope was used to generate an epitope mimetic. […] As negative controls, a peptide 21 amino acids in length denoted peptide 6 (N′-[…]-C, SEQ ID NO: 111) and a peptide eight amino acids in length denoted peptide x (N′-[…]-C, SEQ ID NO: 112) were used. To test whether those peptides have any effect on NS3 catalytic activity a control in vitro assay was performed, in which the peptides and the NS3 enzyme were added alone without the inhibitor antibodies.

The target in series [2] is T2, scNS3 (Hepatitis C virus genotype 1b, UniProt P26663).
T2 construct: a single-chain fusion linking the NS4A cofactor peptide to the N-terminus of the NS3 protease; inferred from the IMAC purification; made in house; host or cells: E. coli BL-21 (DE3) carrying pYB-43
The series can be described thus: Competition ELISA with myc-tagged tracer scFvs 171 and 35 on scNS3-coated plates. Particulars: tracers scFv 171 and 35, myc tag. In kind it is binding, Hepatitis C virus (HCV) genotype Ib. How it is done:
For competition ELISA the inventors replaced the C-terminal FLAG epitope of the scFvs that were used as tracers with a myc tag. Competing scFvs were added to scNS3-coated plates at varying concentrations and incubated at room temperature for 1 hr before adding the tracer scFvs. Binding of the tracers was monitored using a HRP-conjugated anti myc antibody (Sigma, Israel).
On the technique in general: ELISA stands for enzyme-linked immunosorbent assay.

The target in series [3] is T3, MBP-scNS3 (Hepatitis C virus genotype 1b, UniProt P26663).
T3 construct: made in house
The series can be described thus: In vitro fluorometric assay of NS3 protease catalysis inhibition. In kind it is biochemical, Hepatitis C virus (HCV) genotype Ib. To be noted: 100% minus % catalysis of FIG. 3B; 100 nM MBP-scNS3, 5 μM immobilized substrate, 2.4 or 1.2 μM MBP-scFv. How it is done:
(§1) NS3 catalysis inhibition assays. Blue colonies of E. coli TG-I cells carrying pMGT14 and pMALc-NN-scFv that were isolated by the genetic screening were grown in LB medium supplemented with 100 μg/ml ampicillin, 50 μg/ml kanamycin and induced with 0.2% (w/v) arabinose and 0.5 mM IPTG at O.D600nm=0.6 for 4 hr at 30° C. To measure the β-galactosidase activity an ONPG hydrolysis assay (Bach et al., 2001) was carried out. An in vitro fluorometric assay for the measurement of NS3 protease catalysis inhibition by the purified scFvs was carried out essentially as described (Berdichevsky et al., 2003) with the following modifications: the EFGP-NS5A/B-CBD substrate was immobilized onto cellulose prior to its exposure to enzyme and inhibitor. The reactions were carried out in 96 well plates in a volume of 100 μl containing 5 μM immobilized substrate, 100 nM MBP-5cNS3 and 2.4 or 1.2 μM of tested MBP-scFv.

Series [4] relates to HCV RNA replicons. Nature of the series: Inhibition of HCV RNA replicon amplification, SEAP secretion from replicon-bearing Huh7 cells transfected with intrabodies. It counts as cell-based, HCV genotype Ib strain N. Particulars: transiently transfected intrabodies. As for the experimental part: Cells and transfections. HCV genotype Ib strain N subgenomic replicon cell lines were obtained from Stanley Lemon and are described in (Bourne et al., 2005). En5-3 cells are a clonal cell line derived from Huh7 cells by stable transformation with the plasmid pLTR-SEAP. These cells were cultured in DMEM supplemented with 10% fetal calf serum, 2 μg/ml blasticidin (Invitrogen), penicillin, and streptomycin. Following transfection with Ntat2ANeo replicon RNAs, cells supporting replicon amplification were selected and maintained in the above media containing in addition 400 μg/ml G418 (geneticin). Cell lines were passaged once or twice per week. […] The culture medium was replaced every 24 h post transfection and the secreted alkaline phosphatase (SEAP) activity was measured in these fluids as described below, reflecting the daily production of SEAP by the cells.
Alkaline phosphatase assay. […] The luminescent signal was read using a TD-20/20 Luminometer (Turner Designs, Inc.).
For intracellular expression of the anti-NS3 protease single-chain antibodies in the cytoplasm of mammalian cells, the scFvs coding genes were subcloned as Ncol-Notl fragments, form plasmid pMALc-NN-scFv into the pCMV/myc/cyto-MBP vector (Shaki-Loewenstein et al, 2005). […] SEAP activity secreted from the cells was measured over successive 24-h intervals. […]

In series [5] the target is T3, MBP-scNS3. Nature of the series: ONPG hydrolysis (β-galactosidase) assay in genetic screening bacteria as indicator of NS3 activity. It counts as cell-based, Hepatitis C virus (HCV) genotype Ib. Particulars: E. coli TG-I carrying pMGT14 and pMALc-NN-scFv; taken from FIG. 3A. As for the experimental part: as §1

As usually defined, the % inhibition is the change of the read-out against control, counted positive when it falls. High values mean a strong effect, low ones a weak effect.

B1: scFv 171: NS3-inhibiting single-chain antibody, SEQ ID NO:6; MBP fusion SEQ ID NO:20 (protein)
scFv: EVQLQQSGAELVRSGASVKLSCTASGFNIKDYYMHWVKQRPEQGLEWIGWIDPENGDTEYAPKFQGKATMTADTSSNTAYLQLSSLTSEDTAVYYCNAWGGSSDYYAMDYWGQGTSVTVSSGGGGSGGGGSGGGGSDVVMTQTPLSLPVSLGDQASISCRSSQSLVHSNGNTYLHWYLQKPGQSPKLLIYKVSNRFSGVPDRFSGSGSGTDFTLKISRVEAEDLGVYYCFQGSHVPWTFGGGTKLEIKR
modifications: scFv inhibitor
For B1, the “NS3 catalysis with scFv, without peptide” value in series [1] (no peptide) came to 60%. Further, in series [1] (peptide mimetic 50 μM), the “NS3 catalysis with scFv in the presence of the epitope mimetic peptide” value amounted to 93% and the “increase of NS3 catalytic activity on adding the peptide mimetic” value is reported as “more than 30%”. Also, the “competition with scFvs 171 and 35 for specific binding to scNS3” value (from here on “competition”) in series [2] was “could compete”. Further, the “% inhibition” value in series [3] is 88%. The “inhibition of SEAP secretion (in words)” value in series [4] is recorded as “most potent inhibitors”. In addition, the “β-gal: β-galactosidase units” value in series [5] is 67 β-galactosidase units.

B2: scFv 162: NS3-inhibiting single-chain antibody, SEQ ID NO:5; MBP fusion SEQ ID NO:19 (protein)
scFv: EVQLQQSGAELVRSGASVKLSCTASGFNIKDYYMHWVKQRPEQGLEWIGWIDPANGNTKYDPKFQGKATITADTSSNTAYLQLSSLTSEDTAVYYCARWDWYFDVWGAGTTVTVSSGGGGSGGGGSGGGGSSVLMTQTPLSLPVSLGDQASISCRSSQSIVHSNGNTYLEWYLQKPGQSPKLLIYKVSNRFSGVPDRFSGSGSGTDFTLKISRVEAEDLGVYYCFQGSHVPWTFGGGTKLELKR
modifications: scFv inhibitor
As for B2, the “competition” value in series [2] was “apparently did not”. In addition, the “% inhibition” value in series [3] amounted to 62%. Also, the “β-gal: β-galactosidase units” value in series [5] is recorded as 84 β-galactosidase units.

B3: scFv 1: NS3-inhibiting single-chain antibody, SEQ ID NO:1; MBP fusion SEQ ID NO:15 (protein)
scFv: EVQLQQSGPELVKPGASVKMSCKASGYTFTDYYIKWVKQSHGKSLEWIGVINPGSGGTNYNEKFKGKATLTADKSSSTAYMQLSSLTSENSAVYFCARRAGTGYYFDYWGQGTTVTVSSGGGGSGGGGSGGGGSDVLMTQTPLSLPVSLGDQASISCRSSQSIVHSNGNTYLEWYLQKPGQSPKLLIYKVSNRFSGVPDRFSGSGSGTDFTLKISRVEAEDLGVYYCFQGSHVPLTFGAGTKLEIKR
modifications: scFv inhibitor
Consider B3, for which the “competition” value in series [2] is “could compete”. In addition, the “% inhibition” value in series [3] is listed as 46%. Besides, the “β-gal: β-galactosidase units” value in series [5] is given as 44 β-galactosidase units.

B4: scFv 10: NS3-inhibiting single-chain antibody, SEQ ID NO:11; MBP fusion SEQ ID NO:25 (protein)
scFv: QVQLQQSGAELMKPGASVKISCKATGYTFSNYWIEWVKQRPGHGLEWIGGILPGSGSTNYNEKFKGKATFTADTSSNTAYLQLSSLTSEDTAVYYCNADGPPGFDYWGQGTTLTVSSGGGGSGGGGSGGGGSDVLMTQTPLTLSVTIGQPASISCKSSQSLLDSDGKTYLNWLLQRPGQSPKRLIYLVSKLDSGVPDRFTGSGSGTDFTLKISRVEAEDLGVYYCFQGSHVPFTFGSGTKLEIKR
modifications: scFv inhibitor
For B4, the “competition” value in series [2] is reported as “could compete”. For the same molecule, in series [3], the “% inhibition” value is 62%. Besides, in series [5], the “β-gal: β-galactosidase units” value was 48 β-galactosidase units.

B5: scFv 11: NS3-inhibiting single-chain antibody, SEQ ID NO:10; MBP fusion SEQ ID NO:24 (protein)
scFv: EVQLQQSGAELVKPGASVKLSCTASGFNIKDYYMHWVKQRPGQGLEYIGRIYPGNGQTDYNGKFKGKATLTADKSSSTAYMQLSSLTSVDSAVYFCARGLFAYWGQGTLVTVSSGGGGSGGGGSGGGGSDVVMTQTPLSLPVSFGDQVSISCRSSQSLANSYGNTYLSWCLHKPGQSPQLLIYGISNRFSGVPDRFSGSGSGTDFTLKISTIKPEDLGMYYCLQGTHQPLTFGAGTKLEIKR
modifications: scFv inhibitor
Turning to B5, the “competition” value in series [2] was “could compete”. Besides, the “% inhibition” value in series [3] is listed as 52%. Besides, the “β-gal: β-galactosidase units” value in series [5] was 60 β-galactosidase units.

B6: scFv 148: NS3-inhibiting single-chain antibody, SEQ ID NO:7; MBP fusion SEQ ID NO:21 (protein)
scFv: EIQLQQSGAELVKPGASVKLSCTASGFNIKDTFVHWVKQRPEQGLEWIGRIDPANGNTKYDPKFQGKATITAATSSNTAYLQLSSLTSEDTAVYYCATGLDYYAMDYWGQGTSVTVSSGGGGSGGGGSGGGGSDVVMTQTPLSPPVSLGDQASISCRSSQSLVHSNGNTYLHWYLQKPGQSPKLLIYKVSNRFSGVPDRFSGSGSGTDFTLKITRVEAEDLGLYFCSQSTHVPWTFGGGTKLEIKR
modifications: scFv inhibitor
Take B6: the “% inhibition” value in series [3] turned out to be 58%. Further, the “β-gal: β-galactosidase units” value in series [5] is given as 72 β-galactosidase units.
